These results are taken from US5981720.

Test [1] concerns the target yeast alpha-glucosidase (yeast).
The target is the same in test [2]. The source holds these as a separate data set.
Test [3] has the same target. The source holds these as a separate data set.
Test [4] has the same target. The settings on record: scale: decrease of umole of glucose production from maltose per microgram of protein per hour.

No end group written: not given here. *: point of attachment. βGlcNAc = CC(=O)N[C@@H]1[C@@H](O)[C@H](O)[C@@H](CO)O[C@H]1*

In test [1], GGN(βGlcNAc)K [synthetic glycopeptide Gylcyl-glycl-(NB-2-(acetylamino)-deoxy-2-B-pyranosyl)-asparaginyl-lysine] had an inhibitory effect on alpha-glucosidase activity of 90%.

Turning to GGNK (acetylglucosamine cleaved off the asparagine with N-acetylglucosaminidase) [glycopeptide treated with N-acetylglucosaminidase], the inhibitory effect on alpha-glucosidase activity (% of inhibition lost) in test [2] turned out to be 20.

In turn, GGN(βGlcNAc)K(pyridoxal 5‑phosphate) [pyridoxal 5-phosphate modified glycopeptide] came in with an inhibitory effect on alpha-glucosidase activity (% increase in inhibitory effect) in test [2] of 50.

B1: PNGase treated CON-1 (protein)
chain: SPPGKPQGPPPQGGNQPQGPPPPPGKPQGPPPQGGNKPQGPPPPGKPQGPPPQGDNKSQSARSPPGKPQGPPPQGGNQPQGPPPPPGKPQGPPPQGGNKSQGPPPPGKPQGPPPQGGSKSRSSR
modifications: carbohydrate moiety removed with PNGase
For B1, the alpha-glucosidase inhibition assay in test [3] came to 50 percent.

B2: CON-1 (protein)
chain: SPPGKPQGPPPQGGNQPQGPPPPPGKPQGPPPQGGNKPQGPPPPGKPQGPPPQGDNKSQSARSPPGKPQGPPPQGGNQPQGPPPPPGKPQGPPPQGGNKSQGPPPPGKPQGPPPQGGSKSRSSR
modifications: glycoprotein; glycosylation occurs at one N-linked site (acetylglucosamine on asparagine of glycine-glycine-asparagine-lysine)
On to B2, for which, in test [4], the Specific Inhibitory Activity is 2810.
